The target in assay [1] is Human opioid receptor subtype δ2 (human) (UniProt P41143). Kind of assay: cell-based or functional assay.
Assay [2] concerns the target Human opioid receptor subtype µ (human) (UniProt P35372). Kind of assay: cell-based or functional assay.

Human opioid receptor subtype δ2 (human), sequence (P41143 whole entry, stated change not applied): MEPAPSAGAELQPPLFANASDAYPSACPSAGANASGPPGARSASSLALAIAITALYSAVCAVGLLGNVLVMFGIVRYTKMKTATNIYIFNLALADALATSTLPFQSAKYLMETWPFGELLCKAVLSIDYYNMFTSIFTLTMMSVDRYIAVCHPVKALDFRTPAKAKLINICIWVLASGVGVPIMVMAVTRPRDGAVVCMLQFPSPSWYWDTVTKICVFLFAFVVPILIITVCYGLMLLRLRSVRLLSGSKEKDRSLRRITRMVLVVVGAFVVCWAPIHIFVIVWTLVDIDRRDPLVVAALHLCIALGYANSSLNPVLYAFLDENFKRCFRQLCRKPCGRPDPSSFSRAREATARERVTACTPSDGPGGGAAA
Human opioid receptor subtype µ (human), sequence (P35372 whole entry): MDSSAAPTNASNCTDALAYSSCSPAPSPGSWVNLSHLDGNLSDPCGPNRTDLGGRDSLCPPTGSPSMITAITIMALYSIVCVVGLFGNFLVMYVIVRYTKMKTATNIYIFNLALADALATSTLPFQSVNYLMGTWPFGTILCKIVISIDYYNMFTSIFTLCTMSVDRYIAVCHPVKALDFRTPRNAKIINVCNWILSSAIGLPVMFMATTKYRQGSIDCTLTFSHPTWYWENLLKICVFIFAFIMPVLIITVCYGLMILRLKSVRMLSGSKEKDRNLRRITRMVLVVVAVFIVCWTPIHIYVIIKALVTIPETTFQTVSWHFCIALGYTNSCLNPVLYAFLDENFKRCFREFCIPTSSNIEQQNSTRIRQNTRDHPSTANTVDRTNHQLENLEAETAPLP

In the case of “dynorphin A (from UniProt P01213 207-223) (peptide)”, the increase in basal level fluorescence (binding of BODIPY-FL-GTPγS to receptor arrays) in assay [1] came out at 10 fold; in assay [2] it was 2.5 fold.
